The values that follow come from publication PMC10716581, “Fanconi anemia-associated mutation in RAD51 compromises the coordinated action of DNA-binding and ATPase activities”.

The data set has as its target RAD51-Q242R (human, UniProt Q06609 1-339, Q242R). Put plainly: EMSA; 2 mM ATP, 10 mM Mg2+; 20 mM Hepes-NaOH pH 7.5, 0.1 mg/ml BSA, 1 mM DTT, 10 mM MgCl2, 150 mM KCl, 2 mM ATP or AMP-PNP or no nucleotide, 2.7 uM (nt) DNA, 37 C 10 min; 8% native PAGE in 1x TBE. The settings on record: protein: recombinant; tags: N-terminal His-tag removed with thrombin; chain copies: 8; label: 5'-Cy5 on strand 1; blunt.

RAD51-Q242R, sequence (Q06609 whole entry Q242R): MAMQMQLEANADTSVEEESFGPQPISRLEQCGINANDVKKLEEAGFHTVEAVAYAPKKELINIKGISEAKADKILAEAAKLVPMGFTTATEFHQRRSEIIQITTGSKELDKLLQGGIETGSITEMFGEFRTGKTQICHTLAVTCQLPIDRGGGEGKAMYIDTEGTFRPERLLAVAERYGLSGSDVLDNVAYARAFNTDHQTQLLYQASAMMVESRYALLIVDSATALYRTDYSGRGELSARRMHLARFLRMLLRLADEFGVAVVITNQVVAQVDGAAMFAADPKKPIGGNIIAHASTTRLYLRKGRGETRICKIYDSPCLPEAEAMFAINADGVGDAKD

B1: Cy5-OL4/OL5 40-mer (dsDNA)
DNA 1: TAATACAAAATAAGTAAATGAATAAACAGAGAAAATAAAG
DNA 2: CTTTATTTTCTCTGTTTATTCATTTACTTATTTTGTATTA
With B1, the binding result is listed as “binds”.
